Laboratory results as given in patent US20200230057A1, “Pharmaceutical Compositions, Methods for Preparation using Lipid Vesicle Particles of Defined Size, and Uses Thereof” (IMMUNOVACCINE TECHNOLOGIES INC., priority 2017, published 2020).
Where “and” joins values, the source holds several entries; their conditions need not be identical. Equal entries are not always repeated. Where two headings read alike, the source gives them in different places.

Columns and labels:
[1] = HPLC peptide recovery before and after freeze-drying
Protocol: The composition prepared as described in Example 4, containing 14 neoantigens and the A16L T-helper peptide, was subjected to HPLC analysis to evaluate the peptide stability before and after freeze-drying.
Experimental Conditions: • IPQC Solutions: Dilute the IPQC solutions with Methanol and then with Mobile Phase A, e.g. as follows: • 100 mg In-Process Testing Solution • +450 μL Methanol, mix • +450 μL Mobile Phase A, mix • Mix by vortexing. Samples containing lipids will be slightly hazy. Dilution factor=10×. • Lyophilisates (for Release and Stability Testing): Solubilize the lyophilisate with Ultrapure lab water. Add 3-4 glass beads and vortex vigorously for 1 minute to assure complete homogenization. Dilute the solution with Methanol and subsequently with Mobile Phase A, e.g. as follows: • 100 mg In-Process Testing Solution • +450 μL Methanol, mix • +450 μL Mobile Phase A, mix • Mix by vortexing. The sample preparations will be slightly hazy. Dilution factor=20×.
The dried preparations were solubilized in water for HPLC analysis. T=0 is the day in which the samples were removed from the freeze-dryer. T=1M and T=3M are 1 month and 3 months after T=0, respectively, with the dried preparation having been stored at −20° C.

[2] = system: C57BL/6NCrl mice; experiment: IFN-gamma ELISPOT of splenocytes eight days after single vaccination; type: in vivo; conditions: oil-based composition with 14 neoantigens, single administration, response to the named neoantigen
[3] = After freeze dry T = 1M, stored at −20° C.
[4] = After freeze dry T = 3M, stored at −20° C.

Sequence | Amount from non-validated HPLC assay ([1]; After freeze dry T = 0) [mg/mL] | Amount from non-validated HPLC assay [1, 3] [mg/mL] | Amount from non-validated HPLC assay [1, 4] [mg/mL] | Amount from non-validated HPLC assay ([1]; Before freeze dry) [mg/mL] | Improvement of immune response over comparative aqueous composition [2] | Amount from non-validated HPLC assay [1]
IPSGTTILNCFHDVLSGKLSGGSPGVP (Mut29A) [Mut 29a] | 0.38 | 0.34 | 0.35 | 0.54 |  | 
TAVITPPTTTTKKARVSTPKPATPSTD (Mut24) [Mut 24] | 0.44 | 0.38 | 0.37 | 0.56 |  | 
ECRITSNFVIPSEYWVEEKEEKQKLIQ (Mut45) [Mut 45] | 0.44 | 0.42 | 0.46 | 0.47 |  | 
SFACLRQPSQGPTVGVKGGAAGGGYAQ (Mut29B) [Mut 29b] | 0.48 | 0.44 | 0.48 | 0.56 |  | 
NIEGIDKLTQLKKPFLVNNKINKIENI (Mut28) [Mut 28] | 0.50 | 0.50 | 0.51 | 0.53 |  | 
STANYNTSHLNNDVWQIFENPVDWKEK (Mut25) [Mut 25] | 0.54 | 0.50 | 0.56 | 0.56 | about 5 fold | 
CGTAFFINFIAIYHHASRAIPFGTMVA (Mut36) [Mut 36] | 0.19 | 0.25 | 0.31 | 0.47 |  | 
FRRKAFLHWYTGEAMDEMEFTEAESNM [Mut 20] |  |  |  |  |  | 0.41 mg/mL and 0.47 mg/mL and 0.54 mg/mL and 0.42 mg/mL
VVDRNPQFLDPVLAYLMKGLCEKPLAS (Mut17) [Mut 17] | 0.27 | 0.23 | 0.26 | 0.51 |  | 
SHCHWNDLAVIPAGVVHNWDFEPRKVS (Mut48) [Mut 48] | 0.38 | 0.37 | 0.41 | 0.47 |  | 
GFSQPLRRLVLHVVSAAQAERLARAEE (Mut50) [Mut 50] | 0.42 | 0.44 | 0.46 | 0.42 |  | 
PSKPSFQEFVDWENVSPELNSTDQPFL (Mut30) [Mut 30] | 0.51 | 0.51 | 0.56 | 0.53 |  | 
EFKHIKAFDRTFANNPGPMVVFATPGM (Mut44) [Mut 44] | 0.47 | 0.44 | 0.50 | 0.51 | about 3 fold | 
PKPDFSQLQRNILPSNPRVTRFHINWD (Mut22) [Mut 22] | 0.51 | 0.47 | 0.54 | 0.54 |  | 
